# Data reported in US9744220B2, “Compositions and methods for treating inflammatory diseases” (priority 2013, dated 2017).
# B1: sPDNF: N-terminal short-form of T cruzi PDNF that contains Trk-binding sites, recombinant; amino acids 1-588 of SEQ ID NO: 2; JR-100 is the commercial name (protein, listed as Trypanosoma cruzi)
# chain: MGKTVVVASRMFWLMFFVPLLLAICPSEPAYALAPGSSRVELFKRKNSTVPFEDKAGKVTERVVHSFRLPALVNVDGVMVAIADARYDTSNDNSLIDTVAKYSVDDGETWETQIAIKNSRVSSVSRVVDPTVIVKGNKLYVLVGSYYSSRSYWSSHGDARDWDILLAVGEVTKSTAGGKITASIKWGSPVSLKKFFPAEMEGMHTNQFLGGAGVAIVASNGNLVYPVQVTNKKKQVFSKIFYSEDDGKTWKFGKGRSDFGCSEPVALEWEGKLIINTRVDWKRRLVYESSDMEKPWVEAVGTVSRVWGPSPKSNQPGSQSSFTAVTIEGMRVMLFTHPLNFKGRWLRDRLNLWLTDNQRIYNVGQVSIGDENSAYSSVLYKDDKLYCLHEINTDEVYSLVFARLVGELRIIKSVLRSWKNWDSHLSSICTPADPAASSSESGCGPAVTTVGLVGFLSGNASQNVWEDAYRCVNASTANAERVRNGLKFAGVGGGALWPVSQQGQNQRYRFANHAFTLVASVTIHEAPRAASPLLGASLDSSGGKKLLGLSYDEKHQWQPIYGSTPVTPTGSWETGKRYHLVLTMANKI
# Tested on: MCP-1 and FKN
# Test: Single dose IV sPDNF into naive wild type C57BL/6 mice, MCP-1 and FKN by real time PCR
# Format: in vivo
# Procedure: Wild type C57BL/6 mice were used in the results depicted in FIGS. 11A-11D. FIG. 11A is a graph depicting that a single dose of intravenous (IV) sPDNF increased MCP-1 and FKN transcripts in the heart in a pulse-like response. Groups of mice (2 per group) were injected with vehicle (Veh) or sPDNF (150 μg/mouse) and sacrificed at 3, 6, 9 and 12 hr post-injection, and cardiac MCP-1 and FKN transcripts were quantified by qPCR. Points represent fold change of the mean±SD relative to Veh injected mice; *P<0.05 and **P<0.01. Experiment repeated three times with similar results; liver also responded with similar pulselike kinetics. FIG. 11B is a graph depicting that organ distribution of MCP-1 increased following a single IV dose of sPDNF. Experimental design analogous to that summarized above. FIG. 11C is a graph showing that a single IV dose of sPDNF augments MCP-1 and FKN transcripts dose-dependently in the heart. FIG. 11D is a graph showing that a single IV dose of sPDNF augments MCP-1 and FKN transcripts dose-dependently in the liver. For the results depicted in FIGS. 11C and 11D, groups of three mice were injected with various doses of sPDNF, and heart and liver harvested 3 hr post-injection to quantify MCP-1 and FKN by qPCR. The results are plotted as a composite of three distinct experiments. […] For the results depicted in FIGS. 11E-11H, TLR-deficient MyD88^−/− mice (two per group) were injected IV with vehicle (PBS) or sPDNF (100 μg per mouse), sacrificed 3 hr post-injection. FIG. 11E is a graph showing MCP-1 expression in the heart of MyD88^−/− mice injected with sPDNF. FIG. 11F is a graph showing FKN expression in the heart of MyD88^−/− mice injected with sPDNF. FIG. 11G is a graph showing MCP-1 expression in the liver of MyD88^−/− mice injected with sPDNF. FIG. 11H is a graph showing FKN expression in the liver of MyD88^−/− mice injected with sPDNF.
# Groups of naive wild type C57BL/6 mice were injected with vehicle (PBS) or a single dose of IV sPDNF. Mice were sacrificed at various timepoints post-injection, and heart MCP-1 and FKN expression measured by real time PCR. […] The agonist effect of IV sPDNF was screened in various organs using optimum time response (3 hr post-injection) using the same dose as in FIG. 11A. […] Organ distribution of MCP-1 expression in response to IV sPDNF was similar to that of FKN. Without being bound to a particular theory, the selective increase of MCP-1 and FKN in various organs may reflect the uneven expression of PDNF receptors TrkA and TrkC in neural and non-neural tissues (22, 50).
# RNA was isolated from Trizol lysates of cell monolayers or liquid nitrogen snap frozen tissue samples dissociated by a Tissue-Tearor mechanical homogenizer (Biospec Products, Inc.). cDNA was synthesized using the Quantitect Reverse Transcription kit (Qiagen) according to manufacturer's instructions. Chemokine and chemokine receptor transcripts were amplified using specific primers and normalized to HPRT using SYBR Green (Qiagen), and, if needed, expressed relative to control-unstimulated cells. The following primers were used: […]
# sPDNF was diluted in sterile endotoxin-free PBS (200 μl) and injected via the tail vein into 6-8 week old female C57BL/6 mice. Mice receiving single IV injections of 150 μg sPDNF per mouse were sacrificed at 3, 6, 9, and 12 hr post-injection, or various doses of sPDNF (100 ng-150 μg) and sacrificed 3 hr post-injection. Mice receiving multiple injections of sPDNF or PBS vehicle control (0, 3, and 24 hr, 100 μg per injection) were sacrificed 24 hr after the last injection (i.e., 48 hr after the first injection). Mice were perfused with PBS and organs harvested as described above.
# [1] = single IV dose 150 μg/mouse, pulse-like kinetics
# [2] = various single IV doses, 3 hr post-injection
molecule,measurement,setting,value
B1,cardiac FKN transcripts,[1],significantly increased
same,cardiac MCP-1 transcripts,[1],significantly increased
same,"expression of MCP-1 in the heart, liver and spleen","single IV dose, 3 hr post-injection, liver most robust",increased expression
same,time of peak of cardiac FKN,"single IV dose, post-injection",3 h
same,time of peak of cardiac MCP-1,"single IV dose, post-injection",3 h
same,increased expression of FKN in the heart,[2],dose-dependent
same,increased expression of MCP-1 in the heart,[2],dose-dependent
same,increased expression of MCP-1 in the liver,[2],dose-dependent
